Laboratory results: IntAct's records for PubMed 27314904

B1: Polyglutamine-binding protein 1 (Homo sapiens), O60828 (parent)
chain: MPLPVALQTRLAKRGILKHLEPEPEEEIIAEDYDDDPVDYEATRLEGLPPSWYKVFDPSCGLPYYWNADTDLVSWLSPHDPNSVVTKSAKKLRSSNADAEEKLDRSHDKSDRGHDKSDRSHEKLDRGHDKSDRGHDKSDRDRERGYDKVDRERERDRERDRDRGYDKADREEGKERRHHRREELAPYPKSKKAVSRKDEELDPMDPSSYSDAPRGTWSTGLPKRNEAKTGADTTAAGPLFQQRPYPSPGAVLRANAEASRTKQQD
B2: WW domain-binding protein 11 (Homo sapiens), Q9Y2W2 (parent)
chain: MGRRSTSSTKSGKFMNPTDQARKEARKRELKKNKKQRMMVRAAVLKMKDPKQIIRDMEKLDEMEFNPVQQPQLNEKVLKDKRKKLRETFERILRLYEKENPDIYKELRKLEVEYEQKRAQLSQYFDAVKNAQHVEVESIPLPDMPHAPSNILIQDIPLPGAQPPSILKKTSAYGPPTRAVSILPLLGHGVPRLPPGRKPPGPPPGPPPPQVVQMYGRKVGFALDLPPRRRDEDMLYSPELAQRGHDDDVSSTSEDDGYPEDMDQDKHDDSTDDSDTDKSDGESDGDEFVHRDNGERDNNEEKKSGLSVRFADMPGKSRKKKKNMKELTPLQAMMLRMAGQEIPEEGREVEEFSEDDDEDDSDDSEAEKQSQKQHKEESHSDGTSTASSQQQAPPQSVPPSQIQAPPMPGPPPLGPPPAPPLRPPGPPTGLPPGPPPGAPPFLRPPGMPGLRGPLPRLLPPGPPPGRPPGPPPGPPPGLPPGPPPRGPPPRLPPPAPPGIPPPRPGMMRPPLVPPLGPAPPGLFPPAPLPNPGVLSAPPNLIQRPKADDTSAATIEKKATATISAKPQITNPKAEITRFVPTALRVRRENKGATAAPQRKSEDDSAVPLAKAAPKSGPSVPVSVQTKDDVYEAFMKEMEGLL

Variants of: B1
Settings: with wbp11_human WBP11, Q9Y2W2

Variant	effect of a mutation on the interaction
MPLPVALQTRLAKRGILKHLEPEPEEEIIAEDYDDDPVDYEATRLEGLPPSWYKVFDPSCGLPYCWNADTDLVSWLSPHDPNSVVTKSAKKLRSSNADAEEKLDRSHDKSDRGHDKSDRSHEKLDRGHDKSDRGHDKSDRDRERGYDKVDRERERDRERDRDRGYDKADREEGKERRHHRREELAPYPKSKKAVSRKDEELDPMDPSSYSDAPRGTWSTGLPKRNEAKTGADTTAAGPLFQQRPYPSPGAVLRANAEASRTKQQD [Y65C]	disrupting interaction
MPLPVALQTRLAKRGILKHLEPEPEEEIIAEDYDDDPVDYEATRLEGLPPSWYKVFDPSCGLPYYANADTDLVSWLSPHDPNSVVTKSAKKLRSSNADAEEKLDRSHDKSDRGHDKSDRSHEKLDRGHDKSDRGHDKSDRDRERGYDKVDRERERDRERDRDRGYDKADREEGKERRHHRREELAPYPKSKKAVSRKDEELDPMDPSSYSDAPRGTWSTGLPKRNEAKTGADTTAAGPLFQQRPYPSPGAVLRANAEASRTKQQD [W66A]	disrupting interaction
MPLPVALQTRLAKRGILKHLEPEPEEEIIAEDYDDDPVDYEATRLEGLPPSWYKVFDPSCGLPYYWNADTDLVSALSPHDPNSVVTKSAKKLRSSNADAEEKLDRSHDKSDRGHDKSDRSHEKLDRGHDKSDRGHDKSDRDRERGYDKVDRERERDRERDRDRGYDKADREEGKERRHHRREELAPYPKSKKAVSRKDEELDPMDPSSYSDAPRGTWSTGLPKRNEAKTGADTTAAGPLFQQRPYPSPGAVLRANAEASRTKQQD [W75A]	disrupting interaction
MPLPVALQTRLAKRGILKHLEPEPEEEIIAEDYDDDPVDYEATRLEGLPPSWYKVFDPSCGLPAYWNADTDLVSWLSPHDPNSVVTKSAKKLRSSNADAEEKLDRSHDKSDRGHDKSDRSHEKLDRGHDKSDRGHDKSDRDRERGYDKVDRERERDRERDRDRGYDKADREEGKERRHHRREELAPYPKSKKAVSRKDEELDPMDPSSYSDAPRGTWSTGLPKRNEAKTGADTTAAGPLFQQRPYPSPGAVLRANAEASRTKQQD [Y64A]	disrupting interaction
MPLPVALQTRLAKRGILKHLEPEPEEEIIAEDYDDDPVDYEATRLEGLPPSWYKVFDPSCGLPYYWNADTDLASWLSPHDPNSVVTKSAKKLRSSNADAEEKLDRSHDKSDRGHDKSDRSHEKLDRGHDKSDRGHDKSDRDRERGYDKVDRERERDRERDRDRGYDKADREEGKERRHHRREELAPYPKSKKAVSRKDEELDPMDPSSYSDAPRGTWSTGLPKRNEAKTGADTTAAGPLFQQRPYPSPGAVLRANAEASRTKQQD [V73A]	decreasing interaction

Variants of: B2
Settings: with pqbp1_human PQBP1, O60828

Variant	effect of a mutation on the interaction
P462A;P463A;P464A;G465A	disrupting interaction

Variants of: B2
Settings: with pqbp1_human PQBP1, O60828
Remark: another data set of the same source

Variant	effect of a mutation on the interaction
R466A;P467A;P468A;G469A	decreasing interaction

Variants of: B2
Settings: with pqbp1_human PQBP1, O60828
Remark: another data set of the same source

Variant	effect of a mutation on the interaction
P459A;P460A;G461A	decreasing interaction

Variants of: B2
Settings: with pqbp1_human PQBP1, O60828
Remark: another data set of the same source

Variant	effect of a mutation on the interaction
P455A;R456A;L457A;L458A	decreasing interaction
